± gives the uncertainty stated by the source.
B1: library; numbered along this chain (parent)
chain: MEVVDPQQLGMFTEGELMSVGMDTFIHRIDSTEVIYQPRRKRAKLIGKYLMGDLLGEGSYGKVKEVLDSETLCRRAVKILKKKKLRRIPNGEANVKKEIQLLRRLRHKNVIQLVDVLYNEEKQKMYMVMEYCVCGMQEMLDSVPEKRFPVCQAHGYFCQLIDGLEYLHSQGIVHKDIKPGNLLLTTGGTLKISDLGVAEALHPFAADDTCRTSQGSPAFQPPEIANGLDTFSGFKVDIWSAGVTLYNITTGLYPFEGDNIYKLFENIGKGSYAIPGDCGPPLSDLLKGMLEYEPAKRFSIRQIRQHSWFRKKHPPAEAPVPIPPSPDTKDRWRSMTVVPYLEDLHGADEDEDLFDIEDDIIYTQDFTVPGQVPEEEASHNGQRRGLPKAVCMNGTEAAQLSTKSRAEGRAPNPARKACSASSKIRRLSACKQQ

Variants of: B1
Assay: STK11 functional score (HeLa growth suppression), rescaled enrichment; synonymous median = 1, nonsense median = 0 (normalised score)
Details: with HeLa; variant type: missense
Outline: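 Functional scores are post/pre-selection log ratios corrected to wild type, rescaled to synonymous and nonsense medians, merged over codons and replicate transfections, and given bootstrapped error. They come from POPCode libraries of codon-optimised STK11 integrated by Bxb1 at an AAVS1 landing pad in HeLa, three regions each transfected three times, with BFP-negative, mCherry-positive integrants sorted by FACS and tiled gDNA amplicons sequenced on NextSeq.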

Variant | STK11 functional score
Y156I | 1.04 ± 0.24
Y156F | 1.27 ± 0.084
G135T | 1.66 ± 0.28
P275Y | 0.943 ± 0.55
P275A | 0.693 ± 0.35
I267H | 1.45 ± 0.35
I267S | 1.16 ± 0.29
K78G | 0.0293 ± 0.084
K78S | -0.111 ± 0.1
P339C | 1.59 ± 0.11
P339I | 1.52 ± 0.15
P280D | 1.45 ± 0.44
K44D | 0.859 ± 0.084
Q220M | 1.15 ± 0.51
P369T | 1.53 ± 0.11
P369K | 1.42 ± 0.26
P369L | 1.13 ± 0.25
M335C | 1.36 ± 0.15
L344V | 1.42 ± 0.27
Y126M | 0.654 ± 0.64
Y126G | 0.669 ± 0.13
K96S | 1.11 ± 0.12
K96N | 1.14 ± 0.35
H313G | 1.13 ± 0.29

Variant | STK11 functional score
H313N | 0.48 ± 0.26
H313I | 1.45 ± 0.24
S325N | 1.47 ± 0.18
S325M | 0.0951 ± 0.43
S325L | 1.57 ± 0.25
S325G | 0.96 ± 0.28
I238V | 1.21 ± 0.16
I238N | 1.22 ± 0.86
D343L | 0.93 ± 0.25
E120W | 0.626 ± 0.087
A318V | 1.11 ± 0.093
A153L | 0.0918 ± 0.087
A153D | -0.157 ± 0.1
K82L | 1.49 ± 0.16
S240N | 1.11 ± 0.44
K122H | 1.68 ± 0.18
K122M | 1.25 ± 0.6
K122T | 1.61 ± 0.44
R75T | 0.85 ± 0.23
R75L | 0.841 ± 0.13
L80A | 1.21 ± 0.22
N259A | -0.00474 ± 0.089
V95D | 1.5 ± 0.27
V95A | 1.28 ± 0.19

Variant | STK11 functional score
M127H | 1.63 ± 0.2
M127Y | 1.24 ± 0.2
P387S | 1.41 ± 0.23
L341E | 1.55 ± 0.15
S59C | 0.952 ± 0.27
I79M | 0.465 ± 0.1
Y362M | 1.61 ± 0.21
K312G | 1.62 ± 0.15
L164V | 0.774 ± 0.13
L164T | 0.864 ± 0.19
I111D | 1.6 ± 0.19
E293R | 0.395 ± 0.12
E374R | 1.61 ± 0.28
Q112A | 1.24 ± 0.47
G346C | 1.22 ± 0.13
L117Q | 1.33 ± 0.57
K124P | 0.692 ± 0.35
E199R | 1.67 ± 0.31
D30E | 1.13 ± 0.49
C134Y | 1.15 ± 0.92
Y60S | 1.48 ± 0.25
P324L | 1.37 ± 0.19
P324V | 1.58 ± 0.14
C430G | 1.55 ± 0.19

Variant | STK11 functional score
C430S | 1.56 ± 0.34
F255G | 0.519 ± 0.14
M125G | 1.03 ± 0.16
L263F | 0.857 ± 0.29
L263C | 1.11 ± 0.25
R301S | 1.49 ± 0.35
L67T | 0.53 ± 0.095
I322V | 1.08 ± 0.23
I322Q | 0.336 ± 0.09
Y340T | 1.58 ± 0.14
S142E | 1.55 ± 0.18
E65N | 1.06 ± 0.14
E65I | 0.756 ± 0.38
R211I | 0.844 ± 0.4
R211Y | 1.53 ± 0.57
R211A | 1.28 ± 0.14
A273L | 0.931 ± 0.1
G227M | 1.69 ± 0.22
K81A | 1.66 ± 0.18
K81H | 1.25 ± 0.083
T209L | 1 ± 0.21
M18H | 1.37 ± 0.18
G91K | 0.301 ± 0.33
A200Y | 1.29 ± 0.38

Variant | STK11 functional score
S422E | 1.49 ± 0.17
S422W | 1.4 ± 0.15
Y131M | -0.137 ± 0.13
Y131L | 1.36 ± 0.18
Y131G | 0.769 ± 0.28
L282S | 0.442 ± 0.08
L282H | 0.737 ± 0.71
D258E | 0.739 ± 0.3
D258C | 1.16 ± 0.32
E16S | 1.39 ± 0.17
E16C | 1.38 ± 0.69
D229F | 0.981 ± 0.57
D229E | 1.03 ± 0.51
D229L | 1.05 ± 0.19
T230R | 1.39 ± 0.35
T189N | 0.455 ± 0.53
V63M | 0.802 ± 0.23
A406E | 1.45 ± 0.3
A76C | 1.32 ± 0.13
A76M | -0.216 ± 0.42
A76V | 1.06 ± 0.077
K62G | 1.23 ± 0.67
F264R | 0.806 ± 0.25
E407A | 1.52 ± 0.23

Variant | STK11 functional score
K146Q | 1.52 ± 0.51
K41Q | 0.893 ± 0.4
K41A | 1.25 ± 0.34
G394E | 1.26 ± 0.23
R106F | 1.56 ± 0.17
G58N | 0.559 ± 0.29
T71S | 0.618 ± 0.24
D207H | 1.37 ± 0.57
D207W | 0.239 ± 0.18
I88S | 1.16 ± 0.26
V4L | 0.909 ± 0.33
G268Q | 1.26 ± 0.61
R39L | 1.45 ± 0.17
R39W | 1.22 ± 0.49
K178R | 0.681 ± 0.13
K178V | 0.434 ± 0.32
K178P | -0.0986 ± 0.093
K178W | 0.413 ± 0.089
C391N | 0.483 ± 0.73
K235Y | 1.19 ± 0.36
K235H | 1.29 ± 0.19
K269A | 0.886 ± 0.2
R310Y | 1.53 ± 0.17
L140C | 0.555 ± 0.35

Variant | STK11 functional score
F298E | -0.101 ± 0.11
P281T | 1.46 ± 0.22
R86G | 1.3 ± 0.46
R87Y | 1.6 ± 0.29
V150P | 0.992 ± 0.14
K108P | 1.35 ± 0.26
R147W | 0.777 ± 0.16
R147T | -0.149 ± 0.087
D327S | 1.58 ± 0.26
V173P | 0.128 ± 0.49
V173S | 1.23 ± 0.4
Q302A | 1.45 ± 0.33
Q302K | 0.605 ± 0.3
M51S | 0.844 ± 0.24
N412Q | 1.37 ± 0.27
G180H | 1.65 ± 0.29
G180Q | 1.64 ± 0.19
Q37H | 0.921 ± 0.36
Q37G | 1.08 ± 0.14
Q37P | 1.16 ± 0.21
S334C | 0.325 ± 0.13
L160V | 1.26 ± 0.14
V372M | 0.74 ± 0.69

— the supplement of paper PMC12338614
